Measured values taken from US20090098112A1 (Genentech, published 2009).
Where a chain is given by its changes, count along the chain named. Names may count otherwise.

B1: humanized 7H5.v2-IgG (antibody, V domains shown)
VH: EVQLVESGGGLVQPGGSLRLSCAASGYTFTDYYLYWVRQAPGKGLEWIGGISPSSGGTTFADAFEGKATLSVDKSKNTAYLQMNSLRAEDTAVYYCTRDAYGDWYFDVWGQGT
VL: DIQMTQSPSSLSASVGDRVTITCKASQSVGSDVAWYQQKPGKAPKTLIYSTSYRYSGVPSRFSGSGSGTDFTLTISSLQPEDFATYYCQQYSSYPFTFGQGTKVEIKR
notes: also called h7H5.v2
B2: h7H5.v3 (antibody, human IgG1, V domains shown)
VH: B1 VH with A63S
VL: B1 VL
notes: as human IgG1; also called humanized 7H5.v3-IgG
B3: humanized 7H5.v4-IgG (antibody, V domains shown)
VH: B1 VH with T30S, I48V, K67R, A68F, L70I
VL: B1 VL with T46L
notes: also called h7H5.v4
B4: h7H5.v5 (antibody, human IgG1, V domains shown)
VH: B1 VH with T30S, I48V, G49S, K67R, A68F, L70I
VL: B1 VL with T46L
notes: as human IgG1; also called humanized 7H5.v5-IgG
B5: CDR-L1:N28A (Fab, part only; not given: VH end, constant domains, phage fusion, V domains shown, not shown: another chain or arm of the molecule; large carriers)
VL: DIQMTQSPSSLSASVGDRVTITCKASQAVGSDVAWYQQKPGKAPKTLIYSTSYRYSGVPSRFSGSGSGTDFTLTISSLQPEDFATYYCQQYNSYPFTFGQGTKVEIK
VH: B1 VH with S55N, A61N, A63N, G66N
B6: CDR-H2:N54A (Fab, part only; not given: VH end, constant domains, phage fusion, V domains shown, not shown: another chain or arm of the molecule; a dimerising Fc or GST; large carriers)
VL: B5 VL with A28N
VH: B1 VH with S55A, A61N, A63N, G66N
B7: CDR-H2:N62S (Fab, part only; not given: VH end, constant domains, phage fusion, V domains shown, not shown: another chain or arm of the molecule; a dimerising Fc or GST; large carriers)
VL: B5 VL with A28N
VH: B1 VH with S55N, A61N, A63S, G66N
B8: CDR-H2:N60S (Fab, part only; not given: VH end, constant domains, phage fusion, V domains shown, not shown: another chain or arm of the molecule; a dimerising Fc or GST; large carriers)
VL: B5 VL with A28N
VH: B1 VH with S55N, A61S, A63N, G66N
B9: CDR-H2:N62A (Fab, part only; not given: VH end, constant domains, phage fusion, V domains shown, not shown: another chain or arm of the molecule; a dimerising Fc or GST; large carriers)
VL: B5 VL with A28N
VH: B1 VH with S55N, A61N, G66N
B10: CDR-H2:N60A (Fab, part only; not given: VH end, constant domains, phage fusion, V domains shown, not shown: another chain or arm of the molecule; a dimerising Fc or GST; large carriers)
VL: B5 VL with A28N
VH: B1 VH with S55N, A63N, G66N
B11: CDR-H2:N54S (Fab, part only; not given: VH end, constant domains, phage fusion, V domains shown, not shown: another chain or arm of the molecule; a dimerising Fc or GST; large carriers)
VL: B5 VL with A28N
VH: B1 VH with A61N, A63N, G66N
B12: CDR-L3:N92A (Fab, V domains shown)
VH: B1 VH with S55N, A61N, A63N, G66N
VL: B5 VL with A28N, N92A
notes: Fab-phage; also called h7H5.v1 single point mutant, light chain N92A, Fab-phage
B13: CDR-L3:N92S (Fab, V domains shown)
VH: B1 VH with S55N, A61N, A63N, G66N
VL: B5 VL with A28N, N92S
notes: Fab-phage; also called h7H5.v1 single point mutant, light chain N92S, Fab-phage; copies: 1 + 1
B14: CDR-L1:N28S (Fab, V domains shown)
VH: B1 VH with S55N, A61N, A63N, G66N
VL: B5 VL with A28S
notes: Fab-phage; also called h7H5.v1 single point mutant, light chain N28S, Fab-phage; copies: 1 + 1
B15: N28S(L1)+N92S(L3)+N54S/N60A/N62A/N65S(H2) (Fab, part only; not given: VH end, constant domains, phage fusion, V domains shown, not shown: another chain or arm of the molecule; large carriers)
VL: B5 VL with A28S, N92S
VH: B1 VH with G66S
B16: h7H5.v1 (Fab, part only; not given: VH end, constant domains, phage fusion, V domains shown, not shown: another chain or arm of the molecule; large carriers)
VL: B5 VL with A28N
VH: B1 VH with S55N, A61N, A63N, G66N
B17: HC:A78L (Fab, part only; not given: VH end, constant domains, phage fusion, V domains shown, not shown: another chain or arm of the molecule; large carriers)
VL: B5 VL with A28S, N92S
VH: B1 VH with A79L
B18: h7H5.v2 displayed on phage as a monovalent Fab (Fab, V domains shown)
VH: B1 VH
VL: B1 VL
notes: also called humanized 7H5.v2; parental clone
B19: HC:G49S (Fab, part only; not given: VH end, constant domains, phage fusion, V domains shown, not shown: another chain or arm of the molecule; large carriers)
VL: B5 VL with A28S, N92S
VH: B1 VH with G49S
B20: h7H5.v2 framework modification clone, heavy chain A67F, displayed on phage as a monovalent Fab (Fab, name in Kabat numbering, V domains shown)
VH: B1 VH with A68F
VL: B1 VL
notes: Single mutation in h7H5.v2 made by Kunkel mutagenesis; monovalent Fab on phage; The position is Kabat and may be shifted from the count on the entry; also called heavy chain position 67 (A67F)
B21: h7H5.v2 framework modification clone, heavy chain K66R, displayed on phage as a monovalent Fab (Fab, name in Kabat numbering, V domains shown)
VH: B1 VH with K67R
VL: B1 VL
notes: Single mutation in h7H5.v2 made by Kunkel mutagenesis; monovalent Fab on phage; The position is Kabat and may be shifted from the count on the entry; also called heavy chain position 66 (K66R)
B22: h7H5.v2 framework modification clone, heavy chain L69I, displayed on phage as a monovalent Fab (Fab, name in Kabat numbering, V domains shown)
VH: B1 VH with L70I
VL: B1 VL
notes: Single mutation in h7H5.v2 made by Kunkel mutagenesis; monovalent Fab on phage; The position is Kabat and may be shifted from the count on the entry; also called heavy chain position 69 (L69I)
B23: h7H5.v2 framework modification clone, light chain T46L, displayed on phage as a monovalent Fab (Fab, name in Kabat numbering, V domains shown)
VH: B1 VH
VL: B1 VL with T46L
notes: Single mutation in h7H5.v2 made by Kunkel mutagenesis; monovalent Fab on phage; also called light chain position 46 (T46L)
B24: h7H5.v2 framework modification clone, heavy chain I48V, displayed on phage as a monovalent Fab (Fab, name in Kabat numbering, V domains shown)
VH: B1 VH with I48V
VL: B1 VL
notes: Single mutation in h7H5.v2 made by Kunkel mutagenesis; monovalent Fab on phage; also called heavy chain position 48 (I48V)
B25: h7H5.v2 framework modification clone, heavy chain T30S, displayed on phage as a monovalent Fab (Fab, name in Kabat numbering, V domains shown)
VH: B1 VH with T30S
VL: B1 VL
notes: Single mutation in h7H5.v2 made by Kunkel mutagenesis; monovalent Fab on phage; also called heavy chain position 30 (T30S)

Biological target: T1, recombinant human integrin α5β1 (R&D) (human, UniProt P08648 42-995; P05556 21-728)
T1 construct: Bought recombinant heterodimer (R&D); It was used coated on plates and in solution in the phage ELISA, and as analyte or immobilized in BIAcore; also called alpha5beta1; a5b1
T1 sequence (P08648 42-995 limits assumed, chain 1 of 2): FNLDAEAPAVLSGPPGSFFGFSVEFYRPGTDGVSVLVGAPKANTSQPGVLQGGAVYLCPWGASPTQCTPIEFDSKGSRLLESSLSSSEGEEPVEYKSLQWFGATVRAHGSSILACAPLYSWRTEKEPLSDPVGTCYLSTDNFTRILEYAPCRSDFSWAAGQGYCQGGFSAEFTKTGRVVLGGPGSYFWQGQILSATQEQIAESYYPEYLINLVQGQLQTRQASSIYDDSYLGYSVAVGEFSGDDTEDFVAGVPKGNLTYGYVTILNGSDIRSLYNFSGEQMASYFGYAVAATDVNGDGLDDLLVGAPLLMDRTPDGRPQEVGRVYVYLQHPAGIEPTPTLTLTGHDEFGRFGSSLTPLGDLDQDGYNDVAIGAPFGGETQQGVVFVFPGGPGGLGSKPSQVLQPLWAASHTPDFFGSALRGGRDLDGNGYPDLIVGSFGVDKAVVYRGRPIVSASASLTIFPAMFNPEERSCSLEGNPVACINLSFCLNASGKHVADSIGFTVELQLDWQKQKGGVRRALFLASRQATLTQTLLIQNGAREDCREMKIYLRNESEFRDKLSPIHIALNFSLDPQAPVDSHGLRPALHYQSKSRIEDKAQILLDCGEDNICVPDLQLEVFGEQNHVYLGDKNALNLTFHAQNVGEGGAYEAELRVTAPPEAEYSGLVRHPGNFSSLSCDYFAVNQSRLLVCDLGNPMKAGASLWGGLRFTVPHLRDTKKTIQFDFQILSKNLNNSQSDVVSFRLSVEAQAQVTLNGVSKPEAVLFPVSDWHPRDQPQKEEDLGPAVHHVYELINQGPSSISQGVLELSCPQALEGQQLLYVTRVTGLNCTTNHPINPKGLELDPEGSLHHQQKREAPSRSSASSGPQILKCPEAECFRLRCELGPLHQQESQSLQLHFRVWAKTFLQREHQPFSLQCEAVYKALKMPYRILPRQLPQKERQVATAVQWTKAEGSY
T1 sequence (P05556 21-728 limits assumed, chain 2 of 2): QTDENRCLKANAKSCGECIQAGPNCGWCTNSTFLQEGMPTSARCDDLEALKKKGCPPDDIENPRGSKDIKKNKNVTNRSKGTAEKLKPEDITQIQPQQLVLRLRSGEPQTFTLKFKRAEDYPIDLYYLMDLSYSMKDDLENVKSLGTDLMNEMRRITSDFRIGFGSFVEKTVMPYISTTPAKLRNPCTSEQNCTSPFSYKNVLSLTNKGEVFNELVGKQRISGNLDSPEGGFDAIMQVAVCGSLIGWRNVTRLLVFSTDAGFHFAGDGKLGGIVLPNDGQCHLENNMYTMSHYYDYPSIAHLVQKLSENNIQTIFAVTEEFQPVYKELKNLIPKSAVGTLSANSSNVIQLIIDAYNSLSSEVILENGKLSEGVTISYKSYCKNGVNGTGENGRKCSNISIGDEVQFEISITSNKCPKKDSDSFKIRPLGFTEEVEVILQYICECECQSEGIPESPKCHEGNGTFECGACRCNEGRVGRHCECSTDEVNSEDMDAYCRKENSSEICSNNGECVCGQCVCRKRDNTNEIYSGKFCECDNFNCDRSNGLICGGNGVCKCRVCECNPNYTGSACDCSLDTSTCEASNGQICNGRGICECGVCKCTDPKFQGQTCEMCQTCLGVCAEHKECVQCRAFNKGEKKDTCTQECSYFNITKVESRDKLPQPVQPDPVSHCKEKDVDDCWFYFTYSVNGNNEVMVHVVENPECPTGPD
Assay: SPR (BIACORE-3000), antibody immobilized on CM5 chip (about 450 RU), human integrin α5β1 injected 300 nM to 0.29 nM, 25 °C, 1:1 Langmuir fit
Description: FIG. 7 depicts the results of a BIACORE® analysis of humanized 7H5.v1, v2 and v3-IgG against human integrin α5β1. […] Humanized 7H5.v2 indicates the most binding affinity improvement in off-rate.
(§1) Affinity determinations were performed by surface-plasmon resonance using a BIACORE™-3000 instrument. Immobilization was achieved by random coupling through amino groups using a protocol provided by the manufacturer. Two different formats were operated to study binding kinetics for antibody against human integrin α5β1. In FIGS. 3A, 7, and 9A, antibodies were immobilized on a CM5 sensor chip around 450 response units (RU), and 2-fold serial diluted concentrations of human integrin α5β1 (300 nM to 0.29 nM) in PBT buffer (0.05% Tween 20 in PBS) were injected with a flow rate of 30 μl/min at 25° C. In FIGS. 3B and 9B, human integrin […] was immobilized on a CM5 sensor chip around 800 RU, and 2-fold serial diluted concentrations of antibodies (200 nM to 0.2 nM) in PBT buffer (0.05% Tween 20 in PBS) were injected with a flow rate of 30 μl/min at 25° C. After each injection, the chip was regenerated using 10 mM Glycine-HCl buffer at pH 1.7. Binding response was corrected by subtracting the RU from a blank flow cell. Association rates (kₒₙ) and dissociation rates (koff) were calculated using a simple one-to-one Langmuir binding model (BIAcore Evaluation Software version 3.2). The equilibrium dissociation constant (Kd) was calculated as the ratio koff/kₒₙ.

B1 and B2 are within 1.5-fold of each other in Kd: 0.77 nM for the first, 1.07 nM for the second.

B1 and B2 are within 1.5-fold of each other in koff: 6.2e-05 s⁻¹ for the first, 7.5e-05 s⁻¹ for the second.

B1 and B2 are within 1.5-fold of each other in kon: 81000 M⁻¹ s⁻¹ for the first, 70000 M⁻¹ s⁻¹ for the second.

Biological target: T1, recombinant human integrin α5β1 (R&D)
Assay: SPR (BIACORE-3000), human integrin α5β1 immobilized on CM5 chip (about 800 RU), antibody injected 200 nM to 0.2 nM, 25 °C, 1:1 Langmuir fit
Description: (§2) FIG. 9 depicts the results of a BIACORE® analysis of humanized 7H5.v2, v4 and v5-IgG against human integrin α5β1.
as §1

B1 and B3 are within 1.5-fold of each other in Kd: 0.11 nM for the first, 0.14 nM for the second.

B4 was tested, and the Kd was 0.26 nM.

B1 and B3 are within 1.5-fold of each other in koff: 0.00015 s⁻¹ for the first, 0.00013 s⁻¹ for the second.

B4 showed a koff of 0.00017 s⁻¹.

Compared with B1, B3 is 1.5-fold lower in kon: 1.4e+06 M⁻¹ s⁻¹ for the first, 930000 M⁻¹ s⁻¹ for the second.

Work on B4 yielded a kon of 660000 M⁻¹ s⁻¹.

Biological target: T1, recombinant human integrin α5β1 (R&D)
Assay: SPR (BIACORE-3000), antibody immobilized on CM5 chip (about 450 RU), human integrin α5β1 injected 300 nM to 0.29 nM, 25 °C, 1:1 Langmuir fit
Remark: another data set of the same source
Description: as §2, §1

B1 and B3 are within 1.5-fold of each other in Kd: 0.77 nM for the first, 0.73 nM for the second.

B4 was tested, and the Kd was 0.97 nM.

B1 and B3 are within 1.5-fold of each other in koff: 6.4e-05 s⁻¹ for the first, 5.5e-05 s⁻¹ for the second.

B4 gave a koff of 6.7e-05 s⁻¹.

B1 and B3 are within 1.5-fold of each other in kon: 83000 M⁻¹ s⁻¹ for the first, 75000 M⁻¹ s⁻¹ for the second.

In the case of B4, the kon is reported as 69000 M⁻¹ s⁻¹.

Biological target: T1, recombinant human integrin α5β1 (R&D)
Assay: phage competition ELISA IC50 of the Fab-phage against human integrin α5β1, relative to parental h7H5.v1; down arrow = loss, up arrow = improvement of binding affinity
Description: Substitutions with other resides at various positions was achieved by Kunkel mutagenesis using a separate oligonucleotide for each position. […] The IC50 values for binding affinity were determined by phage competition ELISA in FIG. 6. Two variants, h7H5.v2 and h7H5.v3 as indicated were selected to include glycine substitution at position 65 of CDR-H2, cloned into hIgG1 vector, and evaluated binding affinities using BIAcore instrument.
(§3) MAXISORP™ microtiter plates were coated with recombinant human integrin α5β1 (R&D) at 5 μg/ml in PBS overnight and then blocked with PBST buffer (0.5% BSA and 0.05% Tween 20 in PBS) for an hour at room temperature. Phage from culture supernatants were incubated with serially diluted human integrin α5β1 in PBST buffer in a tissue-culture microtiter plate for an hour, after which 80 μl of the mixture was transferred to the target-coated wells for 15 minutes to capture unbound phage. The plate was washed with PBT buffer (0.05% Tween 20 in PBS), and HRP-conjugated anti-M13 (Amersham Pharmacia Biotech) was added (1:5000 in PBST buffer) for 40 minutes. The plate was washed with PBT buffer and developed by adding tetramethylbenzidine substrate (Kirkegaard and Perry Laboratories, Gaithersburg, Md.). The absorbance at 450 nm was plotted as a function of target concentration in solution to determine phage IC₅₀.

First: B5
Second: B6
The Relative Fold to h7H5.v1 of the first is lower: 2.1 fold for the first, 2.4 fold for the second.

First: B7
Second: B8
The Relative Fold to h7H5.v1 of the first is lower: 1.3 fold for the first, 2.5 fold for the second.

Compared with B9, B10 is higher in Relative Fold to h7H5.v1: 1 fold for the first, 1.6 fold for the second.

B11 and B12 are the same in Relative Fold to h7H5.v1: 1 fold for the first, 1 fold for the second.

First: B13
Second: B14
The Relative Fold to h7H5.v1 of the first is lower: 1 fold for the first, 1.3 fold for the second.

Biological target: T1, recombinant human integrin α5β1 (R&D)
Assay: phage competition ELISA: Fab-phage incubated with serially diluted soluble human integrin α5β1, unbound phage captured on plate-coated integrin α5β1, anti-M13-HRP, A450
Description: Mutation at each position was generated by Kunkel mutagenesis using a separate oligonucleotide. Phage competition ELISA was utilized for evaluating all of the variants. […] Binding affinities (IC50) against human integrin α5β1 was determined.
as §3

Compared with B5, B15 is 5-fold lower in IC50 (read off the curve): 0.2 nM for the first, 0.04 nM for the second.

First: B16
Second: B6
The IC50 (read off the curve) of the first is 4-fold lower: 0.05 nM for the first, 0.2 nM for the second.

B7 and B17 are within 1.5-fold of each other in IC50 (read off the curve): 0.1 nM for the first, 0.09 nM for the second.

B18 and B19 are within 1.5-fold of each other in IC50 (read off the curve): roughly 0.06 nM for the first, 0.07 nM for the second.

B22 was tested, and the “IC50 (read off the curve)” value was roughly 0.05 nM.

B20: binds.
B21: binds.
B23: binds.
B24: binds.
B25: binds.
